This note sets out measurements from patent US20240270841A1 (LG CHEM, published 2024).

In general, Kd refers to the equilibrium constant for the complex coming apart. Low values mean higher affinity, high ones lower affinity. The term koff denotes the first-order rate constant of dissociation. High values mean fast dissociation, low ones slow dissociation. By kon is commonly meant the second-order rate constant of association. Low values mean slow association, high ones fast association.

For assay [1], the target named is T1, human LILRB1 protein (LILRB1-His, RnD systems Cat. No. 8989-T2) (human, UniProt Q8NHL6 24-458).
T1 construct: Bought protein; also called human LILRB1-His; not shown: His tag
As to the kind of experiment: SPR (Biacore T200), antibody captured by anti-human IgG (Fc), LILRB1-His injected. On the procedure:
The binding affinities of the 93 antibodies, which were selected in Example 1.3, to the antigen, LILRB1, were measured using Biacore T200 (GE healthcare). An anti-human IgG (Fc) antibody (GE healthcare, Cat. No. BR-1008-39, final concentration of 25 μg/mL) was flowed at the flow rate of 5 μL/min for 360 seconds to be immobilized at 5000-7000 RU on Series S Sensor Chip CM5 (GE healthcare, Cat. No. BR-1005-30) using Amine Coupling Kit (GE healthcare, Cat. No. BR-1000-508).

The target in assay [2] is T2, LILRB1 expressed on the surface of human natural killer cell KHYG-1 (human, UniProt Q8NHL6 24-650).
T2 construct: whole, on cells; also called LILRB1 on KHYG-1 cells; human NK cells (surface)
As to the kind of experiment: flow cytometry (iQue) on KHYG-1 NK cells, antibody 50 ug/mL. On the procedure:
In order to test whether or not 93 antibodies selected in Example 1.4 bind LILRB1 expressed on surface of immune cells, natural killer cell (NK cell) surface binding assay was performed. A human NK cell, KHYG-1 cell (JCRB) was cultured in RPMI 1640 medium (Gibco) supplemented with 10%(w/v) of FBS (Gibco) and 100 U/mL of interleukin-2 (Novartis). KHYG-1 cells were added to a U-bottom 96-well tissue culture plate (BD Falcon) at the amount of 5×10⁴ cells/well. Each of the selected antibodies was added to the well to the final concentration of 50 μg/mL per well and incubated at 4° C. for 1 hour.
In order to see the level of LILRB1-specific binding of the selected antibodies, a human IgG4 isotype control antibody (Biolegend) was treated in the same manner. After washing with FACS buffer, the cells were treated with an anti-human Fc-biotin antibody (life technologies) and incubated at 4° C. for 1 hour. After washing with FACS buffer, the cells were treated with streptavidin PE (BD Pharmigen) and incubated at 4° C. for 30 minutes. After washing with FACS buffer, the cells were resuspended and subjected to analysis using iQue screener (Sartorius).

T2 sequence (Q8NHL6 24-650): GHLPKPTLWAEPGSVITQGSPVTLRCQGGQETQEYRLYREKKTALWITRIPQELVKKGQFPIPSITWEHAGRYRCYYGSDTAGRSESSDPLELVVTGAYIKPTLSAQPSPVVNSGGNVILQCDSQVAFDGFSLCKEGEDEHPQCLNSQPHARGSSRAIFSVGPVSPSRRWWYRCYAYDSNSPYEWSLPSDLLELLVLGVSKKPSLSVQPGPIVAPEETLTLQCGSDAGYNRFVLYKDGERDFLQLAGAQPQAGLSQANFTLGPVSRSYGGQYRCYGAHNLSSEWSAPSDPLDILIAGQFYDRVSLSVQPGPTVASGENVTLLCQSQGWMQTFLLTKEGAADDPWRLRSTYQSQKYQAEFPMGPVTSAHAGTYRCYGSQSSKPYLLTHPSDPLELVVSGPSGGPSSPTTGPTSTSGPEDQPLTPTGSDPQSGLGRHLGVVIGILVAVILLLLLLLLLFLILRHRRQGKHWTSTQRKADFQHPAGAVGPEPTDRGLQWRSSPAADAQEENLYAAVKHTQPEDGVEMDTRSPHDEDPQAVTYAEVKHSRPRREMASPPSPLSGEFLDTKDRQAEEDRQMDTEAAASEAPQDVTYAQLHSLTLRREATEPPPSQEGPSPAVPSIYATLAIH
T1 sequence (Q8NHL6 24-458 limits assumed): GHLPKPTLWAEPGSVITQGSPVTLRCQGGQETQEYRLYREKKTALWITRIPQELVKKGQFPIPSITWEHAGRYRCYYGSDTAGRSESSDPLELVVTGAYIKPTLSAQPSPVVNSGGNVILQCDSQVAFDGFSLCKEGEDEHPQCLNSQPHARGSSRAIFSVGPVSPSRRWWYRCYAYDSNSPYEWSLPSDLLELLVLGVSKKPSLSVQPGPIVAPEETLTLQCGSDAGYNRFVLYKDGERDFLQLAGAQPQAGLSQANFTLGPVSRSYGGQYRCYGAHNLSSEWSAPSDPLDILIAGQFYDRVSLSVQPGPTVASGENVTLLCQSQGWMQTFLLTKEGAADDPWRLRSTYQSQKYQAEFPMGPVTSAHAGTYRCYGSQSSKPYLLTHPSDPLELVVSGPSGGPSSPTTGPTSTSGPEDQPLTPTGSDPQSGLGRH

B1: anti-LILRB1 antibody B12 (antibody, V domains shown)
VH: QVQLVQSGAEVKKPGASVKVSCKASGYTFTGYYMHWVRQAPGQGLEWMGWINPNSGGTNYAQKFQGRVTITADESTSTAYMELSSLRSEDTAVYYCTRAGASIVGATALDYWGQGTLVTVSS
VL: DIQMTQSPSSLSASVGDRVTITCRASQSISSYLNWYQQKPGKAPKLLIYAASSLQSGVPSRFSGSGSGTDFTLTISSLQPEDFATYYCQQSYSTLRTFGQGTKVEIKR
notes: human IgG4, kappa light chain; also called Antibody clone B12
With B1, in assay [1], binding was characterised by a dissociation constant (Kd) of 7.84 nM, the off-rate (koff) came to 0.00144 s⁻¹ and the on-rate constant (kon) came to 184000 M⁻¹ s⁻¹.

B2: anti-LILRB1 antibody E6 (antibody, human IgG4 S228P, V domains shown)
VH: QVQLVQSGAEVKKPGASVKVSCKASGYTFTTYDITWVRQAPGQGLEWMGWMNPNSGNSRSAQKFQGRVSMTSDSSISTAYMELSSLRSEDTAVYYCATGDYSGVVLTATALDYWGQGTLVTVSS
VL: NFMLTQPHSVSESPGKTVTLSCTGSSGNIASNYVQWYQHRPGSAPTTVIYRDDQRPSGVPDRFSGSIDSSSNSASLTISGLRPEDEADYYCQSYDSSSWVFGGGTKLTVLG
notes: human IgG4, lambda light chain; also called Antibody clone E6
In assay [1], B2 registered a dissociation constant (Kd) of 60.7 nM, a koff of 0.00163 s⁻¹ and an on-rate (kon) of 26800 M⁻¹ s⁻¹.

B3: anti-LILRB1 antibody B3 (antibody, human IgG4 S228P, V domains shown)
VH: EVQLLESGGGLVQPGRSLRLSCAASGFTFDDYAMHWVRQAPGKGLEWVSGISWNSGSIGYADSVKGRFTISRDNSKNTLYLQMNSLRAEDTAVYYCARVGDSSGWSDAFDIWGQGTMVTVSS
VL: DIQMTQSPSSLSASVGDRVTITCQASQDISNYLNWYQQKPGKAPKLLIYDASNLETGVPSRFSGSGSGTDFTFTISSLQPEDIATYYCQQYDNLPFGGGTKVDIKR
notes: human IgG4, kappa light chain; also called Antibody clone B3
In assay [1], B3 registered a Kd of 99.8 nM, a koff of 0.00149 s⁻¹ and a kon of 14900 M⁻¹ s⁻¹.

B4: anti-LILRB1 antibody E3 (antibody, human IgG4 S228P)
heavy: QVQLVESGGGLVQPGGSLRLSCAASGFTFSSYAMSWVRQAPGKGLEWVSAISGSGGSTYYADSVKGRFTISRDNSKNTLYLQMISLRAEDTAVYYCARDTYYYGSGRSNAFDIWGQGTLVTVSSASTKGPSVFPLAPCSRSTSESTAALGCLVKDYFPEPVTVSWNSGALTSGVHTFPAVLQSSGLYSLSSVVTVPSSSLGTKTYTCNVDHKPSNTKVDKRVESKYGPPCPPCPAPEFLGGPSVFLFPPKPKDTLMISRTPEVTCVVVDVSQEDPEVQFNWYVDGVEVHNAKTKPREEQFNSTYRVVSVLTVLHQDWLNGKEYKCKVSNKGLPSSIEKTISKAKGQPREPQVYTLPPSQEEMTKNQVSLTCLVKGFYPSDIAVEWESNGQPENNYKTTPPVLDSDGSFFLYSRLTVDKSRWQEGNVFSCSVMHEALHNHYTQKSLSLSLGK
light: SYELTQDPAVSVALGQTVRITCQGDSLRNFYASWYQQKSGQAPVLVMYGKNNRPSGIPDRFSGSTSGNTASLTITGAQAEDEADYYCNSRDSSGSHLTGVFGGGTKVTVLGQPAAAPSVTLFPPSSEELQANKATLVCLISDFYPGAVTVAWKADSSPVKAGVETTTPSKQSNNKYAASSYLSLTPEQWKSHRSYSCQVTHEGSTVEKTVAPTECS
notes: human IgG4, lambda light chain; also called Antibody clone E3
As for B4, in assay [2], the “% of population 2” value came out at 40.2% and the “Mean Fluorescence Intensity” value worked out at 269000. In assay [1], this molecule gave a Kd of 101 nM, a koff of 0.0035 s⁻¹ and a kon of 34600 M⁻¹ s⁻¹.

B5: anti-LILRB1 antibody A11 (antibody, human IgG4 S228P, V domains shown)
VH: EVQLLESGGGLEQPGGFLRLSCAASGFSFTSYAMTWVRQAPGKGLEWVSGISSDGTTTTYADSVRGRFTISRDNAKNTVYLQMNSLRDEDTAVYYCARDQLLGWDALNVWGQGTMVTVSS
VL: not shown
notes: human IgG4, kappa light chain; also called Antibody clone A11
In assay [1], B5 had a Kd of 5450 nM, a koff of 0.000981 s⁻¹ and an association rate constant (kon) of 180 M⁻¹ s⁻¹.

B6: anti-LILRB1 antibody B9 (antibody, V domains shown)
VH: QVQLVESGAEVKKPGSSVKVSCKASGGTFSSYAISWVRQAPGQGLEWMGGIIPIFGTANYAQKFQGRVTITADESTSTAYMELSSLRSEDTAVYYCARGEIAVAQNWDYYGMDVWGQGTLVTVSS
VL: DIQMTQSPSSLSASVGDRVTITCRASQSISRYLNWYQQKPGKAPKLLIYGASSLQSGVPSRFSGSGSGTDFTLTISSLQPEDFATYHCQQAYGFPLTLGGGTKVEIKR
notes: human IgG4, kappa light chain; also called Antibody clone B9
In assay [1], B6 showed a dissociation constant Kd of 66.1 nM, an off-rate (koff) of 0.000616 s⁻¹ and a kon of 9320 M⁻¹ s⁻¹.

B7: anti-LILRB1 antibody E9 (antibody, human IgG4 S228P, V domains shown)
VH: QVQLVESGGGLVQPGRSLRLSCAASGFTFSSYGMHWVRQAPGKGLEWVANIKQDGSEKYYVDSVKGRFTISRDNAKNTLYLQMNSLRAEDTAVYYCAREDRIAAAGMRELDYWGQGTLVTVSS
VL: QSELTQLPSASETPGQRVTISCSGSSSNIGNNYVYWYQQLPGTAPKLLIYRNNQRPSGVPDRFSGSKSGTSASLAISGLRSEDEADYYCAAWDDSLSGWVFGGGTKLTVLG
notes: human IgG4, lambda light chain; also called Antibody clone E9
In assay [1], B7 displayed a Kd of 99.9 nM, a koff of 0.00105 s⁻¹ and a kon of 10500 M⁻¹ s⁻¹.

B8: anti-LILRB1 antibody D3 (antibody, human IgG4 S228P, V domains shown)
VH: EVQLLESGGGVVQPGRSLRLSCAASGSTFSSYAMSWVRQAPGKGLEWVSAISGSGGSTYYADSVKGRFTISRDNSKNTLYLQMNSLRAEDTAVYYCAKDRGSYGYYYGMDVWGQGTMVTVSS
VL: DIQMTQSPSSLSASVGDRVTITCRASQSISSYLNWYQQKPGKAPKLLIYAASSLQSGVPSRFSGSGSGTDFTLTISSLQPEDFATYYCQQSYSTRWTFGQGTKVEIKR
notes: human IgG4; also called Antibody clone D3
Consider B8, for which, in assay [1], binding was characterised by a dissociation constant (Kd) of 180 nM, the koff is 0.000558 s⁻¹ and the on-rate constant (kon) was determined as 3110 M⁻¹ s⁻¹.

B9: anti-LILRB1 antibody F11 (antibody, human IgG4 S228P, V domains shown)
VH: EVQLVESGGGLVQPGGSLKLSCAASGFTFSSYAMSWVRRAPGKGLEWVSTISGSGDSTYYADSVKGRFTISRDNSKNTLYLQMNNLRAEDTAVYYCAREWELGDAFDIWGRGTLVTVSS
VL: QSVLTQPPSTSGTPGQTFSIFCSGSSSNIGTNTVNWYQQLPGTAPKLLIYSNDQRPSGVPDRFSGSKSGTSASLAISGLQSEDEADYYCETWDDSLKGPVFGGGTKVTVLG
notes: human IgG4, lambda light chain; also called Antibody clone F11
In assay [1], B9 gave a Kd of 2.26 nM, an off-rate (koff) of 0.000615 s⁻¹ and an association rate constant (kon) of 272000 M⁻¹ s⁻¹.

B10: anti-LILRB1 antibody E4 (antibody, human IgG4 S228P, V domains shown)
VH: QVQLVQSGAEVKKPGSSVKVSCKASGGTFSSYTISWVRQAPGQGLEWMGRIIPILGIANYAQKFQGRVTMTRDMSTDTAYMELSSLTYDDTAVYFCVRGPSLNYAGYFDNWGQGTLVTVSS
VL: NFMLTQPHSVSESPGKTVTISCTRSSGSIASNYVQWYQQRPGSSPTTVIYEDNQRPSGVPDRFSGSIDSSSNSASLTISGLKTEDEADYYCQSYDTGNRNYVFGTGTQLTVLG
notes: human IgG4, lambda light chain; also called Antibody clone E4
In the case of B10, in assay [2], the “% of population 2” value came to 43.2% and the “Mean Fluorescence Intensity” value was 272000. In assay [1], this molecule registered a Kd of 72.5 nM, a dissociation rate constant (koff) of 0.000773 s⁻¹ and an on-rate (kon) of 10600 M⁻¹ s⁻¹.

B11: anti-LILRB1 antibody E12 (antibody, human IgG4 S228P, V domains shown)
VH: QVQLVESGGGLVQPGGSLRLSCAASGFTFSSYAMHWVRQAPGKGLEWVAVISYDGSNKYYADSVKGRFTISRDNSKNTLYLQMNSLRAEDTAVYYCARERGSGMDVWGQGTLVTVSS
VL: SYELTQDPAVSVALGQTVRITCQGDSLRSYYASWYQQKSGQAPVLVIYGKEKRPSGIPDRFSGSSSGNTASLTITGARAEDEADYYCNSRGSTTDYMVFGGGTQLTVLG
notes: human IgG4, lambda light chain; also called Antibody clone E12
Regarding B11, in assay [1], the Kd is 44 nM, the koff was found to be 0.0103 s⁻¹ and the kon is 233000 M⁻¹ s⁻¹.

B12: anti-LILRB1 antibody G6 (antibody, human IgG4 S228P, V domains shown)
VH: EVQLVESGAEVKKPGASVKVSCKASGYTFTSYYMHWVRQAPGQGLEWMGGIIPIFGTANYAQKFQGRVTITADESTSTAYMELSSLRSEDTAVYYCARGWGYSSSFDYWGQGTTVTVSS
VL: SYELTQDPAVSVALGQTVTITCQGDSLRRYYATWYQQKPGQAPVLVIYGQNYRPSGIPDRFSGSNSGTTASLTITGAQAEDEADYYCNSRDSSGNHVVFGGGTKLTVLG
notes: human IgG4, lambda light chain; also called Antibody clone G6
On to B12, for which, in assay [1], binding was characterised by a dissociation constant (Kd) of 59.1 nM, the koff is 0.0152 s⁻¹ and the kon stood at 258000 M⁻¹ s⁻¹.

B13: anti-LILRB1 antibody D1 (antibody, human IgG4 S228P, V domains shown)
VH: EVQLVQSGAEVKKPGASVKVSCKASGYTFTSYGISWVRQAPGQGLEWMGWINPNSGGTNYAQKFQGRVTMTRDTSISTAYMELSRLRSDDTAVYYCASRGVDEGDYWGQGTMVTVSS
VL: ETTLTQSPAFMSATPGDKVNISCKASQDIDDDMNWYQQKPGEAAISIIQEASTLVPGIPPRFSGSGYGTDFTLTINNIESEDAAYYFCLQHDKFPYTFGQGTKLEIKR
notes: human IgG4, kappa light chain; also called Antibody clone D1
As to B13, in assay [1], binding was put at a Kd of 49.3 nM, the koff was 0.00574 s⁻¹ and the kon was 116000 M⁻¹ s⁻¹.

B14: anti-LILRB1 antibody A10 (antibody, human IgG4 S228P, V domains shown)
VH: QMQLVQSGAEVKKPGSSVKVSCKASGGTFSSYAISWVRQAPGQGLEWMGGIIPIFGTANYAQKFQGRVTITADKSISTAYMELSSLRSEDTAVYYCARGGLGELDNWFDPWGQGTLVTVSS
VL: DIVMTQSPATLSVSPGERATLSCRASQSVSSNLAWYQQKPGQAPRLLIYGASTRATGIPARFSGSGSGTEFTLTISSLQSEDFAVYYCQQYGSSPRMYTFGQGTKVDIKR
notes: human IgG4, kappa light chain; also called Antibody clone A10
B14: in assay [2], the “% of population 2” value stood at 28.7% and the “Mean Fluorescence Intensity” value came to 223000. For the same molecule, in assay [1], binding was characterised by a dissociation constant (Kd) of 152 nM, the koff is 0.00765 s⁻¹ and the association rate constant (kon) is 50400 M⁻¹ s⁻¹.
